These results are taken from PMC8980801 (2022).

The target in test [1] is FLAG-Fzd4-3C-sGFP1–10-PDZ (mouse | not stated) (UniProt Q61088). Put plainly: SEC; FLAG-Fzd4-sGFP1–10 and FLAG-Fzd4-sGFP11 coexpressed in Sf9, solubilised in DDM, M1 anti-FLAG eluate on Superose 6 to separate dimers from monomers; total protein compared with GFP fluorescence. A general note: SEC sorts molecules by how far they enter the pores of the column.
Test [2] deals with T1, Fzd4–LRP6 heterodimer in biotinylated nanodiscs (mouse | human, UniProt Q61088 42-537; O75581 20-1439).
T1 chain 1: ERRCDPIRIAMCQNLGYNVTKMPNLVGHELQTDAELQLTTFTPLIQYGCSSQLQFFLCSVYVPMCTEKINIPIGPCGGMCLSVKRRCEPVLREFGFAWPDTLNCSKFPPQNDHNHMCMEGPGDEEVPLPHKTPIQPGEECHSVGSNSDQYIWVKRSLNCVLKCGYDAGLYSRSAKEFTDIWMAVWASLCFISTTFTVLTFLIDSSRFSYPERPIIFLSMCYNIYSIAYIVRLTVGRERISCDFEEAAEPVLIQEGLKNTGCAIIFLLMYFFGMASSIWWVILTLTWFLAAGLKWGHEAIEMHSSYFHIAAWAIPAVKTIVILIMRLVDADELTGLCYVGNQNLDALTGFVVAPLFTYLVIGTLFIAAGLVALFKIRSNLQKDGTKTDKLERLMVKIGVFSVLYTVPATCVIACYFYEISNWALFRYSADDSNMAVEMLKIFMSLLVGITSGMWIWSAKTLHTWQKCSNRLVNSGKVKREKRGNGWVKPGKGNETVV
T1 chain 2: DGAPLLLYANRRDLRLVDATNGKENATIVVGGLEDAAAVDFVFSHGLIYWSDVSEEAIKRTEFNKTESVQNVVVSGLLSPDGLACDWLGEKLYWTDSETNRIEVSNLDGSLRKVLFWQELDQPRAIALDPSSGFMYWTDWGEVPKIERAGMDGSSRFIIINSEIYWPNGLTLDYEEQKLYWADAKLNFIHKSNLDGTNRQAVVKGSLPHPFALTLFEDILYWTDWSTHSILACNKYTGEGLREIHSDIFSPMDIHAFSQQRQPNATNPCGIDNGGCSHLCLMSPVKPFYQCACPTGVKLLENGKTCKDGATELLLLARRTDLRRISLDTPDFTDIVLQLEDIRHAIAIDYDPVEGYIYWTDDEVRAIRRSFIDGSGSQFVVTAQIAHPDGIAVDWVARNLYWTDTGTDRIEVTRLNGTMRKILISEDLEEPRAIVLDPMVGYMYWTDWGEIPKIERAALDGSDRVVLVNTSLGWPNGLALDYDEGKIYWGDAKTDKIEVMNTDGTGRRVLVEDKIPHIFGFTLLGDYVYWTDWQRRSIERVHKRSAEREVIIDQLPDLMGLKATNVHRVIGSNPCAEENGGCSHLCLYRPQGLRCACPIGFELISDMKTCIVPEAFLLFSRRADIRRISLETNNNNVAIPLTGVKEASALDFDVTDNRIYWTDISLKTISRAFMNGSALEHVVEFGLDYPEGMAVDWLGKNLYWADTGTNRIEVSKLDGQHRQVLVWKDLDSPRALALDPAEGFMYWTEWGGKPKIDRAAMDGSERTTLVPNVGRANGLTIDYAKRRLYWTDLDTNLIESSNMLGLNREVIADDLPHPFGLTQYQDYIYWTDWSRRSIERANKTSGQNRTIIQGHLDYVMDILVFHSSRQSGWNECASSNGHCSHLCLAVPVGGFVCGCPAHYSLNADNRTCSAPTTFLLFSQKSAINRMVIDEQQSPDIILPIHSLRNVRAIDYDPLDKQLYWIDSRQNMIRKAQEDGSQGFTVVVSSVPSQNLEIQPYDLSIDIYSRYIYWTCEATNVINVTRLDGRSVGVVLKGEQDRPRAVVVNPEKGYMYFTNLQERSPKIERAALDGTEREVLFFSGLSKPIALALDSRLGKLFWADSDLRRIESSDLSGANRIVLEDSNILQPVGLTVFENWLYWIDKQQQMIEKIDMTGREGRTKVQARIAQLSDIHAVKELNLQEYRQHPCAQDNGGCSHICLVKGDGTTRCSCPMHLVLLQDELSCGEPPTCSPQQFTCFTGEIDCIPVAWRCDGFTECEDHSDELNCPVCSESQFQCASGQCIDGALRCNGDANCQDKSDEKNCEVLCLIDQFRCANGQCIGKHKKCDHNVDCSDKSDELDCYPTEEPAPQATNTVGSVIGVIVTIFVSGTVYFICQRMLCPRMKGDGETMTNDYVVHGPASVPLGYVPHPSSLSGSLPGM
In words: BLI.

The target in test [3] is T2, LRP6 monomer in biotinylated nanodiscs (human, UniProt O75581 20-1439).
T2 chain: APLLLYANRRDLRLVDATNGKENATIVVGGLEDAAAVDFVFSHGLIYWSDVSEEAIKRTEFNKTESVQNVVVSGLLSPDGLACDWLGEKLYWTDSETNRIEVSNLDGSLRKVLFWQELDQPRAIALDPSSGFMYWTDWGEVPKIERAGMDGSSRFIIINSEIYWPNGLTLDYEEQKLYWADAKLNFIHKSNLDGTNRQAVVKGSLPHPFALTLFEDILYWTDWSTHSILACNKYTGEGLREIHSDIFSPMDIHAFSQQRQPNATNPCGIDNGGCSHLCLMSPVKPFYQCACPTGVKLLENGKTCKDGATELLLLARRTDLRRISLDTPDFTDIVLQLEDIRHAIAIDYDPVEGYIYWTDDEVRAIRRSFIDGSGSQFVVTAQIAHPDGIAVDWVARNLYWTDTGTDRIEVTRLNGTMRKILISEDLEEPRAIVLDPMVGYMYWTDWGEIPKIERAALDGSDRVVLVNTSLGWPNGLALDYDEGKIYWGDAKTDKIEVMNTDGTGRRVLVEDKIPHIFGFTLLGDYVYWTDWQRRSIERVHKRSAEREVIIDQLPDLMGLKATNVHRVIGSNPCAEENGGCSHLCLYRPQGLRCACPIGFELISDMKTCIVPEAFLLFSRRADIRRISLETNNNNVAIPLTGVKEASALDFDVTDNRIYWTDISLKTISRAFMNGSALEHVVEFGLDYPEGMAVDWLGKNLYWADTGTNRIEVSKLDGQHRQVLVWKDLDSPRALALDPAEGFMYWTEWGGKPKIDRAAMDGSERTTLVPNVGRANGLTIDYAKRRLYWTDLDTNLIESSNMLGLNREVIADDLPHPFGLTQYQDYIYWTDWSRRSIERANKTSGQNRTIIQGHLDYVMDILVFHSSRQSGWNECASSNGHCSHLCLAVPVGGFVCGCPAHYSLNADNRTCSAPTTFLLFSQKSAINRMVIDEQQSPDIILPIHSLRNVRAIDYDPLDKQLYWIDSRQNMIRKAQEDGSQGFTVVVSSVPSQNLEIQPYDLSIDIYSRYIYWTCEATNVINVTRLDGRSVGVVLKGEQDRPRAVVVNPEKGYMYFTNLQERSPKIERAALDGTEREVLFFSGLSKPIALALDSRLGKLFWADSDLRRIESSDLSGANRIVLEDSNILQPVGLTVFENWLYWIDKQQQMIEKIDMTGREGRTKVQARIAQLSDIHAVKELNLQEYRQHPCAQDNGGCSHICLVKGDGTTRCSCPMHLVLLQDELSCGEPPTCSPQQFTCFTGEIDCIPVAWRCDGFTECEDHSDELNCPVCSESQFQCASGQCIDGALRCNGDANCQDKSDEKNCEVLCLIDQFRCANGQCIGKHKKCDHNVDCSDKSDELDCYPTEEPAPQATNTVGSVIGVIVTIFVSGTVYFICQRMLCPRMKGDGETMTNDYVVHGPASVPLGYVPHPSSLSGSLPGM
Put plainly: BLI. A general note: In BLI a coated tip is dipped into the sample, and binding shifts an interference pattern.

The target in test [4] is T2, LRP6 monomer in biotinylated nanodiscs. Put plainly: BLI; kinetic.
The target of test [5] is Fzd4–LRP6 heterodimer in biotinylated nanodiscs (mouse | human) (UniProt Q61088). In words: BLI; biotinylated nanodiscs on streptavidin biosensors, 0-100 nM DKK1, empty discs subtracted, 25 °C, 20 mM Hepes pH 7.4, 150 mM NaCl, 1 mM EDTA, 1 mg/ml BSA; steady state.
Test [6] deals with T3, Fzd4–LRP6 heterodimer in biotinylated nanodiscs, prebound to Norrin (mouse | human | , UniProt Q61088 42-537; O75581 20-1439; Q00604 33-133). In words: BLI.
The target in test [7] is T1, Fzd4–LRP6 heterodimer in biotinylated …. In words: BLI; without Norrin.
Test [8] addresses T3, Fzd4–LRP6 heterodimer in biotinylated …. Put plainly: BLI. This is another data set of the same source.
Test [9] addresses T1, Fzd4–LRP6 heterodimer in biotinylated …. Put plainly: BLI; kinetic, without Norrin.
The target in test [10] is Fzd4–LRP6 heterodimer in biotinylated nanodiscs, prebound to Norrin (mouse | human | not stated) (UniProt Q61088). Put plainly: BLI; nanodiscs with 5% PIP2 on SMAP biosensors, 0.01 to 32 μM DEP, empty nanodiscs subtracted, 25 °C, 20 mM Hepes pH 7.4, 150 mM NaCl, 1 mM EDTA, 1 mg/ml BSA; steady state.
The target in test [11] is Fzd4–LRP6 heterodimer in biotinylated nanodiscs (mouse | human) (UniProt Q61088). The test is described as above.
The target of test [12] is T4, Fzd4 homodimer in biotinylated nanodiscs (mouse, UniProt Q61088 42-537).
T4 chain: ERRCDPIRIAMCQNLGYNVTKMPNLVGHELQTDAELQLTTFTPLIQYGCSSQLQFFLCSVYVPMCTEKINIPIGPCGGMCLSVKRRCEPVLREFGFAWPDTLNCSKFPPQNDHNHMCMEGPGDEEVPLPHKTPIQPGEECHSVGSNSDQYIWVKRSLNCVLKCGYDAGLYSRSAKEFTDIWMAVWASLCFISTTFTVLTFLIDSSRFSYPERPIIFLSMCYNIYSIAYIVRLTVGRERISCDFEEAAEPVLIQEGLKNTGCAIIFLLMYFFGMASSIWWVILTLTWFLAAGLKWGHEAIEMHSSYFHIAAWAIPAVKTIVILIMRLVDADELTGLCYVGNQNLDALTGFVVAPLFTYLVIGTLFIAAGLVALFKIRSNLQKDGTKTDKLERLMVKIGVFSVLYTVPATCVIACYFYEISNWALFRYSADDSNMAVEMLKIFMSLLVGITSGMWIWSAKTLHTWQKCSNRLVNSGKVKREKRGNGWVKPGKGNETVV
In words: BLI.

Test [13] has as its target T4, Fzd4 homodimer in biotinylated nanodiscs. In words: BLI; biotinylated nanodiscs on streptavidin biosensors, 0-10 nM MBP–Norrin, 3 h association, 25 °C, 20 mM Hepes pH 7.4, 150 mM NaCl, 1 mM EDTA, 1 mg/ml BSA; steady state.

Molecule “FLAG-Fzd4-3C-sGFP11-PDZ (Sf9) (from UniProt Q61088 42-537) (receptor)” came in with a percent of the expressed protein GFP dimerized in [1] of 50%.

B1: Dikkopf1 (DKK1) (ligand)
chain: TLNSVLNSNAIKNLPPPLGGAAGHPGSAVSAAPGILYPGGNKYQTIDNYQPYPCAEDEECGTDEYCASPTRGGDAGVQICLACRKRRKRCMRHAMCCPGNYCKNGICVSSDQNHFRGEIEETITESFGNDHSTLDGYSRRTTLSSKMYHTKGQEGSVCLRSSDCASGLCCARHFWSKICKPVLKEGQVCTKHRRKGSHGLEIFQRCYCGEGLSCRIQKDHHQASNSSRLHTCQRH
A word on the koff: it is the first-order rate constant of dissociation. Low readings indicate slow dissociation, high ones fast dissociation. The Kd is the free concentration of one partner at which half of the binding sites on the other are occupied at equilibrium, for simple one-to-one binding. On to B1, for which the koff was determined as 0.0057 s⁻¹ in [2] and 0.012 s⁻¹ in test [3]. Moreover, the Kd in test [4] turned out to be 16.7 nM; in test [5], 5.6 nM.

B2: Dishevelled-2 (Dvl2) DEP domain (domain or fragment)
chain: GLSVHMDMASVTKAMAAPESGLEVRDRMWLKITIPNAFLGSDVVDWLYHHVEGFPERREARKYASGLLKAGLIRHTVNKITFSEQCYYVFGDLSG
With B2, the koff in [6] turned out to be 0.013 s⁻¹; in test [7], 0.0095 s⁻¹. For the same molecule, the Kd in test [8] was 420 nM; in [9], 260 nM; in test [10], 198 nM; in test [11], 220 nM.

B3: MBP–Norrin (ligand)
chain: DSDPRRCMRHHYVDSISHPLYKCSSKMVLLARCEGHCSQASRSEPLVSFSTVLKQPFRSSCHCCRPQTSKLKALRLRCSGGMRLTATYRYILSCHCEECNS
For the molecule B3, the koff in test [12] was 0.00034 s⁻¹. The Kd in test [13] was found to be 0.46 nM.
